Where two headings read alike, the source gives them in different places.

The target in data set [1] is T1, HIV-1 Rev (clone BH10) (HIV-1 (isolate BH10), UniProt P04616 1-116).
T1 construct: mature; also called full-length Rev; recombinant HIV-1 Rev
T1 sequence: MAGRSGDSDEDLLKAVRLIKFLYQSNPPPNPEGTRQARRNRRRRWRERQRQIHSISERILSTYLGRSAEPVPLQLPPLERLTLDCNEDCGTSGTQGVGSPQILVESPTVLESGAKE
As to the kind of experiment: SPR (Biacore X), Rev immobilized on CM5 chip, Fab as analyte, Kd=kd/ka. A general note: In SPR one partner is held on a chip, and binding of the other changes the refractive index at the surface.

Data set [2] addresses T1, HIV-1 Rev (clone BH10). Nature of the data set: densitometry of Coomassie-stained SDS-PAGE of the Ni-purified complex.
The target in data set [3] is T1, HIV-1 Rev (clone BH10).
Data set [4] addresses T1, HIV-1 Rev (clone BH10). Nature of the data set: SPR (Biacore X), Rev immobilized on CM5 chip, Fab as analyte, 1:1 Langmuir global fit.
Data set [5] concerns the molecule itself. As to the kind of experiment: sedimentation equilibrium ultracentrifugation, gradient fitted as a monomer-dimer system (self-association of the Fab/Rev complex); self-association of the 1:1 Fab/Rev complex, monomer-dimer fit of sedimentation equilibrium.

B1: Fab SJS-R1 (chimeric rabbit/human anti-Rev Fab) (Fab, V domains shown)
VH: QEQLVESGGRLVTPGTALTLTCKVSGFSLSGFWLNWVRQAPGKGLEWVGAIYRGSGSEWYASWAKGRFTISDTSTTVTLKLTSPTTEDTATYFCAADTTDNGYFTIWGPGTLVTVSS
VL: ELVMTQTPSSVSEPVGGTVTIKCQASQSISSWLSWYQQKPGQPPKLLIYDASNLASGVPSRFMGSGSGTEYTLTISGVQREDAATYYCLGGYPAASYRTAFGGGTELEIIR
notes: also called SJS-R1 Fab; Rev Fab SJS-R1
The Kd is the concentration at which binding is half-saturated. Higher therefore signals a looser complex. A word on the koff: it is a measure of how fast the partners let go of each other. A word on the kon: it is the second-order rate constant of association. Read a high kon as faster complex formation. Molecule B1 registered a dissociation constant Kd with HIV-1 Rev (clone BH10) [1] of approximately 0.04 nM. In addition, the “molar ratio in the purified complex” value in the data set with HIV-1 Rev (clone BH10) [2] is 0.9 mol Rev per mol Fab. Moreover, in the data set with HIV-1 Rev (clone BH10) [3], the koff is 8.3e-06 s⁻¹ and the association rate constant (kon) was determined as 228000 M⁻¹ s⁻¹. Moreover, in the data set with HIV-1 Rev (clone BH10) [4], the dissociation rate constant (koff) was found to be 8e-06 s⁻¹ and the kon was 220000 M⁻¹ s⁻¹.

B2: scFv SJS-R1 (mature SJS-R1 scFv) (scFv)
scFv: AELVMTQTPSSVSEPVGGTVTIKCQASQSISSWLSWYQQKPGQPPKLLIYDASNLASGVPSRFMGSGSGTEYTLTISGVQREDAATYYCLGGYPAASYRTAFGGGTELEIIGGSSRSSSSGGGGSGGGGQEQLVESGGRLVTPGTALTLTCKVSGFSLSGFWLNWVRQAPGKGLEWVGAIYRGSGSEWYASWAKGRFTISDTSTTVTLKLTSPTTEDTATYFCAADTTDNGYFTIWGPGTLVTVSSHHHHHH
notes: also called anti-Rev scFv; Rev scFv
In the case of B2, the “molar ratio in the purified complex” value with HIV-1 Rev (clone BH10) [2] came to 0.87 mol Rev per mol scFv.

B3: Fab/Rev complex (1:1 complex of Fab SJS-R1 and HIV-1 Rev) (other)
light: ELVMTQTPSSVSEPVGGTVTIKCQASQSISSWLSWYQQKPGQPPKLLIYDASNLASGVPSRFMGSGSGTEYTLTISGVQREDAATYYCLGGYPAASYRTAFGGGTELEIIRTVAAPSVFIFPPSDEQLKSGTASVVCLLNNFYPREAKVQWKVDNALQSGNSQESVTEQDSKDSTYSLSSTLTLSKADYEKHKVYACEVTHQGLSSPVTKSFNRGEC
heavy: QEQLVESGGRLVTPGTALTLTCKVSGFSLSGFWLNWVRQAPGKGLEWVGAIYRGSGSEWYASWAKGRFTISDTSTTVTLKLTSPTTEDTATYFCAADTTDNGYFTIWGPGTLVTVSSASTKGPSVFPLAPSAKSTSGGTAALGCLVKDYFPEPVTVSWNSGALTSGVHTFPAVLQSSGLYSLSSVVTVPSSSLGTQTYICNVNHKPSNTKVDKKAEPKSCDKTRGHHHHHH
chain: T1 sequence
notes: mature; also called Fab/Rev immune complex
Take B3: the Kd in data set [5] was approximately 100 µM.
